B1: IL24: cytokine of the IL-10 family that signals through IL-20R1/IL-20R2 and IL-22R1/IL-20R2 and activates STAT3 (protein, UniProt Q13007 52-206, looked up)
Interleukin-24: QEFHFGPCQVKGVVPQKLWEAFWAVKDTMQAQDNITSARLLQQEVLQNVSDAESCYLVHTLLEFYLKTVFKNYHNRTVEVRTLKSFSTLANNFVLIVSQLQPSQENEMFSIRDSAHRRFLLFRRAFKQLDVEAALTKALGEVDILLTWMQKFYKL

Columns and labels:
HeLa-EF1a-Luc2 cells = assay: Luciferase reporter activity in HeLa-EF1a-Luc2 cells (background control); type: cell-based, human; settings: 1 μM Stattic, 150 ng/mL IL24, 8 hours, vs DMSO
Procedure: (§1) Hela cells were cultured to 20% confluency on the day of infection. After removing the culture medium, lentivirus expressing Luc2 (LVX-EIP-Luc2) was mixed with a culture medium and treated to the cells. After adding 2 μg of Polybrene per 1 mL of the virus, the plate was carefully shaken for mixing. After culturing for 15 hours under the condition of 37° C. and 5% CO2, the culture medium was replaced with a fresh one. 48 hours later, the transduced cells were cultured further and recombinant HeLa-EF1a-Luc2 cells were selected by culturing for 2 weeks in a medium containing 2 μg/mL puromycin as an antibiotic.
(§2) HeLa-IL24HTS cells and HeLa-EF1a-Luc2 cells were cultured on a 96-well plate at a concentration of 2.0×10^4 cells/well, respectively. After treating the cells with a vehicle (DMSO) (no Stattic) or 1 μM Stattic (CAS No: 19983-44-9), which is a STAT3 inhibitor, while treating with 150 ng/mL IL24 and culturing for 8 hours, luciferase activity was measured using a luciferase assay system (Promega).

IL24-STAT3 signaling [1] = assay: IL24-induced STAT3 luciferase reporter activity in HeLa-IL24HTS cells, inhibitor test; type: cell-based, human; settings: 1 μM Stattic, 150 ng/mL IL24, 8 hours, vs DMSO
Procedure: as §1, with “The selected and established HeLa-4.47” for “Hela”, “hIL22RA1, hIL20RB or hSTAT3” for “Luc2 (LVX-EIP-Luc2)”, “HeLa-IL24HTS” for “HeLa-EF1a-Luc2”, “puromycin, 5 μg/mL blasticidin S and 1,000 μg/mL G418” for “puromycin”, “antibiotics. Through this experiment, HeLa-4.47-hIL22RA1-hIL20RB-hSTAT3 cells that stably express all of hIL22RA1, hIL20RB and hSTAT3 were established and named HeLa-IL24HTS.” for “an antibiotic.”
as §2

IL24-STAT3 signaling [2] = assay: Reporter activity of HeLa-IL24HTS cells treated with IL24 at different concentrations; type: cell-based, human; settings: 15 ng/mL or higher IL24, 24 hours
Procedure: The HeLa-4.47 cells established in Test Example 2 were treated with lentivirus expressing hIL22RA1, hIL20RB or hSTAT3 and selected with 2 μg/mL puromycin, 5 μg/mL blasticidin S and 1,000 μg/mL G418 as antibiotics to obtain HeLa-4.47-hIL22RA1-hIL20RB-hSTAT3 cells (HeLa-IL24HTS) which stably express all of hIL22RA1, hIL20RB and hSTAT3. The specific process of preparing the HeLa-IL24HTS cell line was the same as described above.
After treating the prepared HeLa-IL24HTS cells with IL24 at different concentrations (0.15 ng/mL, 1.5 ng/mL, 15 ng/mL and 150 ng/mL) and culturing for 24 hours, luciferase activity was measured using a luciferase assay system (Promega). […] It can be seen that the HeLa-IL24HTS cells show strong reporter induction of 60 fold or higher in the presence of 15 ng/mL or higher IL24.

IL24-STAT3 signaling [3] = settings: earlier literature reporter assay; cited from earlier work
IL24-STAT3 signaling [4] = assay: Luciferase activity of pGL4.47 HeLa clones co-transfected with hIL22RA1, hIL20RB and hSTAT3, with or without IL24; type: cell-based, human; settings: 150 ng/mL IL24, 24 hours, clone 12 (HeLa-4.47)
Procedure: 2 mg of pGL4.47 (Promega, E4041), which is a STAT3 reporter plasmid, was linearized using the Pst1 restriction enzyme. The linearized plasmid was transfected into Hela cells using polyethyleneimine (Polysciences). 48 hours later, the cells were transferred to a 100-mm culture dish and only the transfected cells were selected by treating with 500 μg/mL hygromycin and culturing for 2 weeks. The selected transfected cells were cultured on a 96-well plate. The cells were dispensed at 0.5 cell per well. 33 clones were obtained by culturing further for 3 weeks. Each clone was mixed with pCMV-SPORT6-hIL22RA1 (Korea Human Gene Bank), pCMV3-hIL20RB (SinoBiological) and pCMV3-hSTAT3 (SinoBiological) at 1:1:1 for co-transfection. The transfected cells were treated or untreated with 150 ng/mL IL24. After culturing for 24 hours, luciferase activity was measured by luciferase assay. The clone with the strongest activity was established and named HeLa-4.47.
HeLa cells were transfected with pGL4.47 and selecting using hygromycin to obtain 33 clones. After co-transfecting each clone by mixing with pCMV-SPORT6-hIL22RA1, pCMV3-hIL20RB and pCMV3-hSTAT3 at 1:1:1, luciferase activity was measured using a luciferase assay system (Promega) for treatment with 150 ng/mL IL24 (IL24(+)) or absence of treatment (IL24(−)).

Molecule	change in reporter activity (HeLa-EF1a-Luc2 cells)	reporter activity inhibited (IL24-STAT3 signaling [1])	reporter induction (IL24-STAT3 signaling [2])	increase of reporter signal by IL24 (IL24-STAT3 signaling [3])	IL24(+)/IL24(−) ratio of luciferase activity (IL24-STAT3 signaling [4])
O=[N+]([O-])c1ccc2c(c1)S(=O)(=O)C=C2 [Stattic]	no significant change	about 80%	–	–	–
B1	–	–	≥ 60 fold	about 3 times	150-200
